Source: PMC5944358

Target: MVN-DAVEI4-3Trp (not stated | HIV-1 (strain not stated))
Test: ELISA

“HIV-1 YU2 gp120 (from UniProt P35961 32-498) (natural protein)” gave an EC50 of 79 nM.
